Measured values taken from the supplement of paper PMC9732359.
± gives the uncertainty stated by the source.

Assay: protein stability index of a GFP-peptide fusion (yeast GPS) (PSI 1-4); higher = more stable; sorted into four equal gates, so the index is relative within each strain
Summary of the method: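 Tiled yeast protein peptides of 17 residues were each joined downstream of GFP, on plasmids that also express Cherry. The pooled library was maintained in yeast, and mid-log cultures in leucine-free medium were sorted into four equal gates on the GFP/Cherry ratio. Plasmids from every gate were amplified by PCR and sequenced on Illumina, with barcodes linking reads to strains. The protein stability index of a peptide is its gate-number-weighted read frequency summed over the gates.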

Sequence | protein stability index (doa10∆) | protein stability index (pdr5∆) | protein stability index (san1∆) | protein stability index (ubr1∆)
GFETSKNIKIIMATNRL [RPT6] | 2.87 ± 0.15 | 2.54 ± 0.084 | 2.36 ± 0.066 | 3.28 ± 0.063
INDPTNKEYTLVHGIFG [SIN4] | 2.1 ± 0.09 | 2.21 ± 0.091 | 2.25 ± 0.13 | 1.94 ± 0.19
YLMDSKNVRTRIKLATT [RRI1] | 2.09 ± 0.08 | 2.07 ± 0.073 | 1.61 ± 0.099 | 1.99 ± 0.061
NNDADKGRSYAYFMVGA [RIP1] | 3.24 ± 0.11 | 3.32 ± 0.1 | 3.29 ± 0.084 | 3.07 ± 0.075
GIRIKGKIVGFDEFMNV [SME1] | 3.15 ± 0.068 | 2.96 ± 0.098 | 3.23 ± 0.076 | 3.12 ± 0.099
IEEQGDALQDVEESSEK [DPB4] | 3.02 ± 0.12 | 3.46 ± 0.079 | 3.13 ± 0.059 | 3.41 ± 0.075
KFGLLLQVSAQERKDFL [ECM29] | 1.6 ± 0.082 | 1.5 ± 0.056 | 1.59 ± 0.2 | 1.57 ± 0.047
AELDDCRGVSENVILGQ [RPO21] | 3.64 ± 0.14 | 3.68 ± 0.16 | 3.24 ± 0.07 | 3.56 ± 0.2
PKVPVSAAATPSLNKTI [GAL11] | 2.5 ± 0.039 | 2.77 ± 0.033 | 2.67 ± 0.035 | 2.63 ± 0.036
TDEALFENVKLLAEYDN [MED4] | 3.02 ± 0.11 | 3.17 ± 0.1 | 3.08 ± 0.088 | 2.87 ± 0.073
LQALKANDEEAYIKLLD [SNF2] | 2.91 ± 0.093 | 3.29 ± 0.1 | 3.36 ± 0.11 | 2.77 ± 0.2
NDDALDLDLDLFDPDDF [MED4] | 2.88 ± 0.045 | 3.04 ± 0.068 | 2.81 ± 0.036 | 3.07 ± 0.032
VYREVCAACHSLDRVAW [CYT1] | 3.36 ± 0.26 | 3.04 ± 0.12 | 2.71 ± 0.17 | 2.86 ± 0.13
SQFCYVSDDESNGEVLE [RPN14] | 3.41 ± 0.22 | – | – | 3.09 ± 0.1
TGNGTTTTSNTSGTNIA [YOR098C/NUP1] | 2.96 ± 0.045 | 2.69 ± 0.047 | 2.46 ± 0.056 | 2.41 ± 0.035
RALFETKLNLHCVIEDD [RRI1] | 2.36 ± 0.11 | 2.8 ± 0.071 | 2.8 ± 0.057 | 2.29 ± 0.1
FQQQQQQQQQQQQPQPQ [PGD1] | 2.21 ± 0.11 | 2.7 ± 0.11 | 2.46 ± 0.2 | 3.05 ± 0.21
ITHYAVRGGNIEIMGIL [RRI1] | 2.85 ± 0.1 | 2.54 ± 0.097 | 2.79 ± 0.095 | 2.25 ± 0.13
VCAKLFGNIQKVVNFWL [RPO21] | 2.03 ± 0.098 | 1.93 ± 0.07 | 1.95 ± 0.11 | 1.78 ± 0.074
KAELPQWYTLQSQLNVT [MED8] | 2.77 ± 0.055 | 2.9 ± 0.047 | 2.8 ± 0.05 | 2.69 ± 0.056
EIGLLPEDALVNDFSDI [SMC3] | 3.44 ± 0.089 | 2.91 ± 0.12 | 3.19 ± 0.088 | 3.3 ± 0.11
TIFKSGEIDFIKNIGKS [YML103C/NUP188] | 1.64 ± 0.069 | 2.37 ± 0.061 | 1.92 ± 0.12 | 2.51 ± 0.073
DSDGTRLKGDIFCVGSG [PRE2] | 2.88 ± 0.057 | 2.87 ± 0.057 | 2.93 ± 0.091 | 2.45 ± 0.061
EVQRILIELLTQMDGFD [RPT3] | 1.36 ± 0.054 | 2.08 ± 0.081 | 1.41 ± 0.16 | 1.81 ± 0.069
KRQAYAVSEKAGHQTSA [RPL4A] | 2.14 ± 0.12 | 1.4 ± 0.13 | 1.65 ± 0.12 | 2.34 ± 0.078
TADAEILINTARIHAQN [PRE9] | 2.92 ± 0.094 | 2.85 ± 0.073 | 2.83 ± 0.099 | 2.96 ± 0.072

Sequence | protein stability index (doa10∆) | protein stability index (pdr5∆) | protein stability index (san1∆) | protein stability index (ubr1∆)
QQQQQQQQQQQHIYPSS [GAL11] | 2.691 ± 0.02 | 2.78 ± 0.02 | 2.693 ± 0.017 | 2.811 ± 0.018
DSGIGSNGSGIVAAGGG [CSL4] | 3.45 ± 0.066 | 3.34 ± 0.07 | 3.35 ± 0.052 | 3.42 ± 0.058
DIAFVLNNLPYKNEDVT [YCS4] | 2.61 ± 0.053 | 3.08 ± 0.051 | 2.94 ± 0.037 | 3 ± 0.065
EMTLPTSPLYMDPGAPL [SSN2] | 3.07 ± 0.11 | 2.8 ± 0.11 | 2.8 ± 0.15 | 2.81 ± 0.11
QKEEGRSFTKAIEDAKK [YLR335W/NUP2] | 3.1 ± 0.11 | 3.06 ± 0.085 | 3.05 ± 0.086 | 2.8 ± 0.069
SAPKISSEIDRENVKSK [SIR4] | – | – | – | 3.35 ± 0.15
KLKECPFDMGGYFIING [RPB2] | 3 ± 0.078 | 3.07 ± 0.082 | 2.72 ± 0.073 | 3.07 ± 0.051
YPFDKLESWWLVLGEVS [BRR2] | 3.18 ± 0.18 | 3.23 ± 0.15 | 3.46 ± 0.11 | 3.41 ± 0.24
LSCVKNDTISEDILQGI [NUT1] | 2.69 ± 0.067 | 2.35 ± 0.073 | 2.53 ± 0.11 | 3.17 ± 0.076
TRAKIGGLNDPRLGSID [RPO21] | 3.03 ± 0.11 | 2.22 ± 0.077 | 2.58 ± 0.098 | 2.37 ± 0.083
DVETVKREIQEALSEKP [RPC53] | 3.27 ± 0.15 | 3.42 ± 0.12 | 3.17 ± 0.13 | 3.35 ± 0.1
KLYKTPIPIPAFADRLG [PRE10] | 1.5 ± 0.11 | 1.29 ± 0.076 | 1.04 ± 0.18 | 1.46 ± 0.2
DSTQLLETILEEFRNLA [SSN2] | 2.69 ± 0.076 | 3.18 ± 0.065 | 2.85 ± 0.055 | 3.2 ± 0.054
PHIIAVACLFITISIHG [SSN8] | 1.17 ± 0.055 | 1.3 ± 0.049 | 1.34 ± 0.11 | 1.47 ± 0.062
GYLIQVLLTFLQDELHK [YCS4] | 2.97 ± 0.1 | 2.02 ± 0.088 | 2.01 ± 0.12 | 3.24 ± 0.096
HTEDESTKELKFSDIIQ [BRN1] | 3.11 ± 0.2 | 2.89 ± 0.21 | 3.23 ± 0.22 | 3.41 ± 0.094
ATLPYIKQDIPIVIIFR [RPB2] | 1.5 ± 0.063 | 1.2 ± 0.049 | 1.19 ± 0.12 | 1.14 ± 0.041
KVKLFHGILDDLETSLS [MED2] | 3.17 ± 0.084 | 3.09 ± 0.075 | 3.14 ± 0.072 | 3.36 ± 0.055
FQLVNDVMDELITSSAR [SIR3] | 3.36 ± 0.14 | 2.9 ± 0.087 | 3.42 ± 0.068 | 3.23 ± 0.071
IASDGSYVNYRHMALLV [RPO21] | 1.68 ± 0.055 | 1.89 ± 0.051 | 1.35 ± 0.067 | 1.59 ± 0.038
FITNVQSISQNSSSSTP [SWI1] | 2.38 ± 0.069 | 2.63 ± 0.063 | 2.43 ± 0.064 | 2.44 ± 0.05
KQVQISHHLKADTIDHD [YGL172W/NUP49] | 2.91 ± 0.067 | 3.09 ± 0.053 | 2.79 ± 0.065 | 2.92 ± 0.043
DDDERVEYNLFTNRSTM [BRN1] | 2.97 ± 0.12 | 3.2 ± 0.12 | 3.11 ± 0.07 | 3.1 ± 0.068
PAKPALSFGTATSDNKT [YJL041W/NSP1] | 3.05 ± 0.09 | 3.12 ± 0.072 | 2.93 ± 0.097 | 3.08 ± 0.048
GTLEGHNGWVTSLATSA [ASC1] | 2.61 ± 0.063 | 1.87 ± 0.069 | 1.74 ± 0.15 | 1.67 ± 0.066
EDGLLEGLDELPKIIQL [SOH1] | 3.11 ± 0.07 | 3.3 ± 0.047 | 3.12 ± 0.044 | 3.15 ± 0.051
